The supplement of paper PMC10567573
± gives the standard deviation.

Assay: protein stability index of a GFP-peptide fusion (GPS, HEK-293T) (PSI 1-6); higher = more stable
Details: c terminus: a fixed tail appended
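Note: 24-mer peptide tiles fused after GFP, lentivirally expressed, FACS-sorted into six equal bins by GFP/DsRed ratio, decoded by Illumina sequencing, PSI is the read-weighted mean bin number.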

Sequence | protein stability index (treatment: DMSO) | protein stability index (treatment: MLN4924 1 uM, 8 h)
VDIVTGHARLSDIWAKTPPITRKA [DHCR7] | 3.26 ± 0.093 | 3.38 ± 0.16
VDNARIVLQIDNARLAADDFRVKY [KRT18] | 2.58 ± 0.31 | 2.77 ± 0.21
VDSEQLRRDCDALMAGCIQEARER [CDKN1A] | 4.82 ± 0.15 | 4.7 ± 0.28
VEEVDMAEEFEQPTLSCEKYLTYD [ELOA2] | 5.09 ± 0.32 | 5.19 ± 0.39
VELIPEKKGLFLKHVEYEVSSQRF [SNX8] | 2.31 ± 0.27 | 2.46 ± 0.19
VELVNAACNFEPHESFFSLFSDPR [ZER1] | 2.45 ± 0.13 | 2.54 ± 0.2
VENECYQVFLDRINRADYCPECYP [TOR1AIP2] | 2.43 ± 0.42 | 2.62 ± 0.27
VERYHNLCQKQVKAQLPRRESERR [FBXO28] | 4.08 ± 0.31 | 3.99 ± 0.08
VEVMDETNCQKVLNMWCCCFFKRR [CSNK1G3] | 3.21 ± 0.38 | 3.15 ± 0.39
VEYKDIASIHWDWKIALLFVAFAL [SLC35F2] | 2.81 ± 0.8 | 2.74 ± 0.32
VFMEFGPPNQQMSPSPMSHGHYSM [DLX1] | 2.21 ± 0.1 | 2.24 ± 0.23
VGDLMSPFDQSGLGAEESLGLLDD [ATF4] | 5.17 ± 0.27 | 4.89 ± 0.28
VGGATPDQTTSEETVGGAILDQTT [HDAC6] | 5.48 ± 0.49 | 5.43 ± 0.35
VGKTRLICARACNTTLTQYQLLAT [RHOBTB1] | 2.18 ± 0.35 | 2.21 ± 0.12
VGRTEPELLVAHAYTRYLGDLSGG [HMOX1] | 2.68 ± 0.16 | 2.48 ± 0.08
VHPFVNYNSSRFGEGVERELFVRE [MYORG] | 3.09 ± 0.18 | 3 ± 0.37
VILLPYVSKVTGWCRDRLLGHREP [TMEM175] | 2.28 ± 0.3 | 2.04 ± 0.36
VIVQIKQPRKKYVQRKSDFDQTVF [NETO1] | 2.09 ± 0.3 | 2.09 ± 0.076
VKHQCCPGCGYFCTAGNFMECQPE [EHMT1] | 3.31 ± 0.19 | 3.31 ± 0.5
VKNSNRYDVEMTDELVGLPFSSHT [FBXO34] | 3.8 ± 0.25 | 4 ± 0.12
VKRKIRDESLCPQHHEALSLFCYE [TRIM39] | 2.38 ± 0.11 | 2.73 ± 0.3
VKVPGIVRLRTLLCKVLGVLFSVA [CLCN6] | 2.21 ± 0.32 | 2.19 ± 0.29
VLALADEAGYYFFNGNYKVDSPKN [ADAMTSL2] | 2.7 ± 0.23 | 2.86 ± 0.3
VLCPECENPETDLHVNPKKQTIGN [EIF5] | 4.3 ± 0.3 | 4.54 ± 0.15
VLMKGQHLHLETFKAVLDGLDVLL [PRAME] | 2.26 ± 0.38 | 2.17 ± 0.1
VNPLHVDSTWLLLRRIRAESGTKG [SLC25A39] | 2.83 ± 0.3 | 2.74 ± 0.33

Sequence | protein stability index (treatment: DMSO) | protein stability index (treatment: MLN4924 1 uM, 8 h)
VPAGEEEGELGEYRQKLLMFLEIS [VPS39] | 3.39 ± 0.16 | 3.68 ± 0.22
VPGEFKQDVTVVGSAGRLLAVGTD [GFOD1] | 4.1 ± 0.29 | 3.69 ± 0.17
VQKLVKVCTDTDRWSLISLSNKNG [TENT5C] | 2.64 ± 0.034 | 2.85 ± 0.26
VQRHNSFSPNSPQFNVSGPGLLEE [NECAB1] | 4.03 ± 0.21 | 4.33 ± 0.32
VRQLERENAELESRIQEWYEFQIP [KRT36] | 3.41 ± 0.16 | 3.43 ± 0.42
VSAATQLRHFFLVEDLVDSLKLAL [RTN2] | 2.56 ± 0.72 | 2.49 ± 0.47
VSCFLTFNIFDWLGRSLTAVFMWP [SLC29A1] | 3.03 ± 0.07 | 3.502 ± 0.017
VSDPQHAARLLRALSSFREESRFC [GAN] | 2.59 ± 0.068 | 2.72 ± 0.19
VSQWYELVVFTASMEIYGSAVADK [CTDNEP1] | 3.26 ± 0.36 | 3.17 ± 0.48
VTPFDHNIVNLLTTCSTPLLNSPP [AUP1] | 2.42 ± 0.12 | 2.48 ± 0.39
VTVPSMLSRLLSRKRAVPCGACLT [OR3A1] | 2.39 ± 0.38 | 2.25 ± 0.29
VTVTDVDIVFSKIKGKSCRTITFE [TPPP] | 2.23 ± 0.24 | 2.1 ± 0.28
VVIRDIDERAMELLIDFAYTSQIT [KLHL20] | 3.19 ± 0.55 | 2.67 ± 0.57
VVYVKHQAQIDQYLGLVRTHINAV [RTN1] | 2.22 ± 0.82 | 2.52 ± 0.48
VWKYFGFDTNAEGCILQWKKIYCR [ZBED1] | 2.37 ± 0.56 | 2.2 ± 0.41
WAIPNRQINDGMGGDGDDMEIFME [BEX3] | 4.31 ± 0.3 | 4.22 ± 0.26
WFQNKRSKFKKLMKQGGAALEGSA [DLX1] | 2.62 ± 0.4 | 3.01 ± 0.36
WGCDLGVVTRVVTGVYPRCLHASQ [BRF1] | 2.89 ± 0.8 | 2.3 ± 0.46
WGDLLGEDSLAALSSVPSEAQISD [SNAP91] | 4.76 ± 0.3 | 4.71 ± 0.22
WGLDQEQVFSLGDGVSGGFFGIRD [ZBED1] | 2.91 ± 0.6 | 3.17 ± 0.3
WGRLLEQVGTMALWASQREKEVLR [ZBED2] | 2.18 ± 0.16 | 2.36 ± 0.23
WHEIRQGRLPRIPQVLSQEFTELL [WEE1] | 2.42 ± 0.22 | 2.38 ± 0.23
WIGLFLVATGSQQSLAQPLPGNTT | 2.93 ± 0.55 | 2.96 ± 0.35
WKVLTWLRYTLWIPLYPLGCLAEA [HACD3] | 2.78 ± 0.74 | 2.55 ± 0.54
WNNVGLLGGRALMNCLPSNRTLWR [LRRC45] | 2.23 ± 0.31 | 2.24 ± 0.45
WRERAVEKRERALEEVERAILEMK [ZBED2] | 4.2 ± 0.14 | 4.29 ± 0.44

Sequence | protein stability index (treatment: DMSO) | protein stability index (treatment: MLN4924 1 uM, 8 h)
WRLLNPGEYVVTAKAEGFTASTKN [CPXM2] | 3.09 ± 0.43 | 3.03 ± 0.29
YDPTYKDKEGPSPKVEYVWRNIIL [SCD] | 2.11 ± 0.47 | 2.37 ± 0.23
YECTVCKKRFTRRSHLIGHQRTHS [ZNF449] | 4.86 ± 0.39 | 5.05 ± 0.24
YEKAYEGGSELGGWSLGRWTHDGI [CPXM2] | 2.49 ± 0.82 | 2.69 ± 0.16
YETESETESEIESETDFETEPETA [GNAS] | 5.2 ± 0.17 | 5.22 ± 0.15
YFITLGTDLAQQQGGGNGQQQQAM [KCNA4] | 3.04 ± 0.18 | 2.95 ± 0.67
YGLQGGMAFLDKRLQVKEHQHEEI [ATL3] | 3.06 ± 0.51 | 3.39 ± 0.65
YGSFHQQYWLDGKIIAVGVIDILP [ATE1] | 3.36 ± 0.39 | 3.16 ± 0.67
YHNAGTQTVPKRIPERLSIFCRDT [IQUB] | 2.51 ± 0.28 | 3.04 ± 0.8
YHSPELTTPPGHGTLDNSKSMKPY [NEUROD6] | 2.87 ± 0.65 | 3.7 ± 0.67
YIKTPLFNPEVAKYLKVPQDPLKF [IQUB] | 2.42 ± 0.66 | 2.57 ± 0.36
YILLVTSDVLTISGTIMKIGIEAK [MCOLN1] | 3.09 ± 0.5 | 3.17 ± 0.39
YIVAGSARQHALYIWEKSIGNLVK [RBBP5] | 2.22 ± 0.25 | 2.14 ± 0.47
YIWEKSIGNLVKILHGTRGELLLD [RBBP5] | 2.65 ± 0.52 | 3.09 ± 0.29
YLLMVTVILLPYVSKVTGWCRDRL [TMEM175] | 3.27 ± 0.62 | 3.22 ± 0.66
YLRCIQSEVSFEGAYGNLKRLYDK [SMG5] | 2.61 ± 0.26 | 2.64 ± 0.34
YPALREKSKKYSDVEVPASVTGYS [ADD1] | 4.16 ± 0.2 | 4.28 ± 0.25
YQQQHEQQKKDLEILHQQNIHQLQ [SASS6] | 4.47 ± 0.11 | 4.6 ± 0.19
YQSFVQFLQYYYQSGCLYRLRALG [TMEM120A] | 2.67 ± 0.88 | 3.22 ± 0.57
YREESDSLGQDLRRLRQELLKTEA [DAPK3] | 3.85 ± 0.68 | 3.83 ± 0.31
YSGGGYYLDLPGSRQGSAEALRAL [PKD2L1] | 2.5 ± 0.48 | 2.92 ± 0.89
YSLGGVRSLNVASGSGKSGGYGFG [KRT71] | 2.72 ± 0.34 | 3.29 ± 0.49
YSSGSYDSIKTEVSGCPEDLTVGR [NOL4L] | 4.49 ± 0.23 | 4.44 ± 0.23
YSWNNRCMVEIVQKYDPDKDEWHK [KLHL13] | 2.84 ± 0.42 | 2.86 ± 0.25
YTRIWSLHDARLLRTIPSPYPASK [DCAF4] | 2.46 ± 0.48 | 2.87 ± 0.17
YYLHPLPAGAEYCSSARHPAWGHC [SCNN1D] | 2.12 ± 0.2 | 2.21 ± 0.12
